Columns and labels:
Details in all cases: remark: other sources report otherwise
[1] = biological target: T1, Fas fusion proteins with the death domain (CFP and YFP) (Homo sapiens (Human)), P25445; test: CFP dequenching after YFP photobleaching, microscope
T1 chain: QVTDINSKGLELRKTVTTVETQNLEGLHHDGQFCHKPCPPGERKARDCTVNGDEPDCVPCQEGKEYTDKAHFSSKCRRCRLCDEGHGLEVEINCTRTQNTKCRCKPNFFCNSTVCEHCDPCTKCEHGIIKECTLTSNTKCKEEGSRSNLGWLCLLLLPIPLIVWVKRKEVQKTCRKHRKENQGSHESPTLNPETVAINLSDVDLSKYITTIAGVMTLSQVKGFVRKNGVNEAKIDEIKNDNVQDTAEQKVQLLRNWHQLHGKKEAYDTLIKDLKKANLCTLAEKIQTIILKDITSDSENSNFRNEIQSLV

[2] = biological target: T2, native Fas receptor of H9 lymphoma cells (Homo sapiens (Human)), P25445; test: DTSSP crosslinking of H9 cells, deglycosylated lysates, anti-Fas blot
T2 chain: T1 chain

[3] = biological target: T3, p60 TNFR, full-length (Homo sapiens (Human)), P19438; test: DTSSP crosslinking of H9 cells with or without TNFα, non-reducing gel, anti-p60 blot
T3 chain: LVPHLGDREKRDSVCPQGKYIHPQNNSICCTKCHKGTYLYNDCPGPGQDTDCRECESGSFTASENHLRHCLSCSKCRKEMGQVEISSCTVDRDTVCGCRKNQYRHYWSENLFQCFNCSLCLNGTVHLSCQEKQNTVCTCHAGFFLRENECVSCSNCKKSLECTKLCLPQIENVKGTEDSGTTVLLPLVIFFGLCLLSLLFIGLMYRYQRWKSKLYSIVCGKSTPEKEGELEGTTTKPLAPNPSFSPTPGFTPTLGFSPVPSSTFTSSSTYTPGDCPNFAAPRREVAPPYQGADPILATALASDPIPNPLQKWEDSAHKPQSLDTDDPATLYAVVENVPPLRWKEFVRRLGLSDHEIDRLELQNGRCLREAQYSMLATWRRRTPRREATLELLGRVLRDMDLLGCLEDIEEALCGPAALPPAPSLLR

B1: Fas fusion proteins with the death domain (CFP and YFP), P25445 26-335 (receptor, not shown: large carriers)
chain: T1 chain
Binder B1 has an FRET efficiency (E%) [1] of 27%.

B2: native Fas receptor of H9 lymphoma cells, P25445 26-335 (receptor)
chain: T1 chain
With B2 the percent of chains cross-linked as trimers (densitometry) [2] was 60%.

B3: p60 TNFR, full-length, P19438 30-455 (receptor)
chain: T3 chain
Work on B3 yielded a percent of chains cross-linked as apparent trimers and higher order complexes [3] of 15 to 20%.
